Data: patent publication US20190375786A1, “STABLE PEPTIDES AND METHODS OF USE THEREOF” (Fred Hutchinson Cancer Research Center, priority 2016, published 2019)

Experiments:
[1] = test system: chymotrypsin; assay: SDPR surface display protease resistance, anti-6xHis staining, chymotrypsin; assay type: cell-based; conditions: HEK-293 cells, up to 40 μg/ml chymotrypsin for 20 minutes
Protocol: (§1) Soluble peptides were exposed to 500 U/mL porcine trypsin and analyzed by HPLC. Protease resistance was also assessed by using SDPR-displaying peptides. The SDPR vector is similar to the a surface display GFP FasL(SDGF) vector, but contains a C-terminal 6×His tag (SEQ ID NO: 180) and all basic or aromatic amino acid residues on the stalk removed. Protease resistance is then tested by incubation of cells displaying peptides with trypsin or chymotrypsin, followed by incubation in 10 mM DTT, and staining with an anti-6×His fluorophore-labeled antibody (“6×His” disclosed as SEQ ID NO: 180). If peptides are uncleaved, they retain the His tag and are stained with by the antibody. A control protease-sensitive knottin peptide (SK) was used as a positive control. Cells displaying peptides were treated with up to 40 μg/ml trypsin or chymotrypsin.
(§2) To determine the impact of protease treatment or reducing condition on the function of the peptides, i.e., binding activity, various binding or functional assays can be performed. […] After treatment with the protease and reducing agent, any linearized peptide product or degradation product resulting from reduction and/or proteolysis by treatment with a protease can be detected or analyzed by staining against the 6×His tag (SEQ ID NO: 180). […]

[2] = Resistance to reduction by reduced glutathione (GSH), HPLC; assay type: physicochemical; conditions: 10 mM reduced glutathione (GSH); HPLC vs non-reduced peptide
Protocol: This example describes stability of designed or engineered peptides under reducing conditions. Peptides that are designed or engineered to interact with one or more target proteins in the cell, such as proteins in the nucleus, are exposed to reducing conditions in the cytosolic compartment of cells. Thus, it is advantageous for peptides of this disclosure to display stability in reducing conditions. Stability of peptides of this disclosure was tested in 10 mM DTT and 10 mM GSH. GSH is a more physiologically relevant reducing agent for testing peptide stability in intracellular conditions. An example of a peptide-target protein interaction is a peptide binding to a TEAD protein.

[3] = test system: TEAD protein; assay: Binding of surface-displayed (SDGF) peptide to biotinylated target protein after reducing agent, flow cytometry; assay type: cell-based; conditions: HEK-293 cells displaying peptide, 20 nM biotinylated target protein
Protocol: Designed or engineered peptides of this disclosure were also tested to evaluate if the peptides' binding activity to their target protein (e.g., TEAD protein) was affected by exposure to reducing conditions. HEK-293T suspension cells were transfected with a surface display GFP FasL(SDGF) vector comprising SEQ ID NO: 39 (SDGF-SEQ ID NO: 39) or SDGF vector comprising SEQ ID NO: 43 (SDGF-SEQ ID NO: 43) construct. Cultures were grown for two days, followed by incubation in 10 mM GSH or 10 mM DTT. Finally, cells were stained with biotinylated-target protein to evaluate the binding activity of a peptide to the target protein. FIG. 15 illustrates the stability of peptides of SEQ ID NO: 39 and SEQ ID NO: 43 after exposure to a reducing agent. Each peptide was expressed on a cell surface and tested for binding to a target protein after cells expressing SDGF-SEQ ID NO: 43 or SEQ ID NO: 39 were exposed to a reducing agent. FIG. 15A illustrates a flow cytometry plot showing binding of HEK-293 suspension cells transfected with SDGF-SEQ ID NO: 39 (GFP) incubated for 5 minutes in PBS, 10 mM DTT, or 10 mM reduced glutathione (GSH) before staining with 20 nM biotinylated target protein and 20 nM AF647-streptavidin. FIG. 15B illustrates a flow cytometry plot showing binding of HEK-293 suspension cells transfected with SDGF-SEQ ID NO: 43 (GFP) incubated for 5 minutes in PBS, 10 mM DTT, or 10 mM reduced glutathione (GSH) before staining with 20 nM biotinylated target protein and 20 nM AF647-streptavidin. FIG. 15C illustrates quantification of the AF647 mean fluorescence intensity (MFI) of cells falling within the “slice” gate shown in FIG. 15A and FIG. 15B. […] In other words, peptides of SEQ ID NO: 39 and SEQ ID NO: 43 were resistant to reduction by GSH.

[4] = molecular target: trypsin (Sus scrofa, UniProt P00761); assay: SDPR surface display protease resistance, anti-6xHis staining, trypsin; assay type: cell-based; conditions: HEK-293 cells, up to 40 μg/ml trypsin for 20 minutes
Sequence of trypsin (P00761 9-231): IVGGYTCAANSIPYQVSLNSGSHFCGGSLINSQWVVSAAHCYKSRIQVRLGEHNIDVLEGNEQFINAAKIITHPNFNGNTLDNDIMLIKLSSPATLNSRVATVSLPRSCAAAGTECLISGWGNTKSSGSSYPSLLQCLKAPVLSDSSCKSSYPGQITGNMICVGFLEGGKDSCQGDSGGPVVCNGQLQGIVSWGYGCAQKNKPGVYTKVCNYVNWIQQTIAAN
Protocol: as §1, §2

GSPDEYIERAKECCKKQDIQCCLRIFDESKDPNVMLICLFCW [SEQ ID NO: 43]
resistance of surface-displayed peptide to cleavage by chymotrypsin [1]: partially resistant
resistance to GSH reducing conditions [2]: resistant
binding to target protein after DTT treatment ([3]; 5 minutes in 10 mM DTT): no loss in binding
binding to target protein after GSH treatment ([3]; 5 minutes in 10 mM GSH): no loss in binding
resistance of surface-displayed peptide to cleavage by trypsin [4]: partially resistant
